Laboratory results taken from patent publication US9102922B2, “Trehalose phosphorylases and their use in the biocatalytic production of trehalose-analogues and glycosyl phosphates” (Universiteit Gent, priority 2010, dated 2015).
Positions count from the first letter of the chain named. Numbers in names are those of the source.

Columns and labels:
intestinal trehalase = details: cited from earlier work
[1] = tested on: trehalose phosphorylase (TP); assay: Phosphorolytic activity of the TP on other α-glucobioses (GOD-POD assay); assay type: biochemical, Caldanaerobacter subterraneus
Method: (§1) The phosphorolytic activity of the enzyme was determined using a discontinuous assay in which the released glucose is converted by glucose oxidase and peroxidase (GOD-POD)(Werner et al., 1970). The activity was assayed in 30 mM phosphate buffer at pH 7 and 60° C., using 30 mM disaccharide as substrate. The synthetic activity of the enzyme was determined using a discontinuous assay in which the released phosphate is complexed by molybdate and ascorbic acid (Gawronski and Benson, 2004). The activity was assayed in 50 mM MES buffer at pH 6 and 60° C., using 30 mM β-glucose-1-phosphate as donor and 500 mM of acceptor substrates.

TP from C. pacificum = TP from C. pacificum (Caldanaerobacter subterraneus, UniProt Q8RBK9); assay: Synthetic activity of TP on monosaccharide acceptors (released phosphate, molybdate assay); assay type: biochemical, Carboxydibrachium pacificum; details: acceptor 500 mM; 60° C. and pH 6; D-glucose = 100
Method: as §1

[2] = Thermostability of the enzyme (residual activity after incubation); assay type: physicochemical; details: 1 hour incubation at 65° C.
[3] = Donor specificity: phosphorolysis of lactotrehalose by CsTP variants (release of βGal1P and βGlc1P); assay type: biochemical; details: for Ratio βGal1P/βGlc1P / Release of βGal1P / Release of βGlc1P: 100 mM lactotrehalose, pH 7 and 60° C.
[4] = Phosphorolytic activity of the enzyme: specific activity, optimal pH and temperature; assay type: biochemical
Method: as §1

[5] = Kinetic parameters of TP variants on galactose as acceptor; assay type: biochemical; details: Gal as acceptor; 60° C. and pH 6
Method: (§2) […] The synthetic activity of the enzyme was determined using a discontinuous assay in which the released phosphate is complexed by molybdate and ascorbic acid (Gawronski and Benson, 2004). […] Site-saturation mutagenesis was performed with degenerate primers (NNK) as described by […] et al. (2008), and random mutagenesis was performed with the GeneMorph II EZClone Domain Mutagenesis Kit (Stratagene) according to the manufacturer's instructions. The resulting DNA libraries were transformed into E. coli XL10-Gold, after which the cells were grown on solid LB medium in a Petri dish. Colonies were then transferred to 96-well microtiter plates containing liquid LB medium, in which enzyme expression was induced. Enzyme was extracted by the addition of lysis buffer with a liquid handling robot (Freedom EVO 200, Tecan) and the crude cell extracts were used for enzyme screening. Acceptor screening was performed with the phosphomolybdate assay described above. […] The clones with the highest activity were sequenced to identify the introduced mutations. The improved enzyme variants were then produced and purified as described for the wild-type enzyme, to allow a more detailed characterization.

[6] = substrate: OC[C@H]1OC(O)[C@H](O)[C@@H](O)[C@@H]1O; assay: Synthetic activity of TP on monosaccharide acceptors (released phosphate, molybdate assay); assay type: biochemical, Carboxydibrachium pacificum; details: other: 60° C. and pH 6
[7] = Kinetic parameters of TP variants on glucose as acceptor; assay type: biochemical; details: Glc as acceptor; 60° C. and pH 6
Method: as §2

[8] = Specific activity of TP variant on mannose as acceptor; assay type: biochemical; details: compared with wild-type CsTP
Method: The activity was assayed in 30 mM phosphate buffer at pH 7 and 60° C., using 30 mM disaccharide as substrate. The synthetic activity of the enzyme was determined using a discontinuous assay in which the released phosphate is complexed by molybdate and ascorbic acid (Gawronski and Benson, 2004). […] Site-saturation mutagenesis was performed with degenerate primers (NNK) as described by […] et al. (2008), and random mutagenesis was performed with the GeneMorph II EZClone Domain Mutagenesis Kit (Stratagene) according to the manufacturer's instructions. The resulting DNA libraries were transformed into E. coli XL10-Gold, after which the cells were grown on solid LB medium in a Petri dish. Colonies were then transferred to 96-well microtiter plates containing liquid LB medium, in which enzyme expression was induced. Enzyme was extracted by the addition of lysis buffer with a liquid handling robot (Freedom EVO 200, Tecan) and the crude cell extracts were used for enzyme screening. Acceptor screening was performed with the phosphomolybdate assay described above. […] The clones with the highest activity were sequenced to identify the introduced mutations. The improved enzyme variants were then produced and purified as described for the wild-type enzyme, to allow a more detailed characterization.

Molecule: OC[C@H]1O[C@H](O[C@H]2O[C@H](CO)[C@@H](O)[C@H](O)[C@H]2O)[C@H](O)[C@@H](O)[C@H]1O [lactotrehalose, Galactose-α-1,1-α-glucose]
- effect on intestinal trehalase (intestinal trehalase): competitive inhibitor
- hydrolysis by intestinal trehalase (intestinal trehalase): not hydrolysed

Molecule: OC[C@H]1O[C@H](O[C@H]2[C@H](O)[C@@H](O)C(O)O[C@@H]2CO)[C@H](O)[C@@H](O)[C@@H]1O (mixture of isomers) [maltose]
- Activity towards other α-glucobioses [1]: could not be detected

Molecule: O=C[C@@H](O)[C@H](O)[C@H](O)CO [D-Arabinose]
- Relative activity (%) (TP from C. pacificum): 2%

Molecule: O=C[C@@H](O)[C@@H](O)[C@H](O)CO [D-Lyxose]
- Relative activity (%) (TP from C. pacificum): 1%

Molecule: OC[C@H]1O[C@H](O[C@H]2C(O)O[C@H](CO)[C@@H](O)[C@@H]2O)[C@H](O)[C@@H](O)[C@@H]1O (some centres unmarked) [kojibiose]
- Activity towards other α-glucobioses [1]: could not be detected

B1: TP from C. pacificum (Caldanaerobacter subterraneus subsp. tengcongensis MB4) (protein)
chain: MDMVKKTKKPIYPFEDWTIRETEFSIETNYRNETIFAQANGYMGMRGNFEEGYSGPDGTSLKGTYINGFYEIHDIIYPEGGYGFAKTGQTMLNVADSKIIELYVGEEKFDLLKGKIHFYERVLDMKKGCVERKIKWESPSGKIVNVKIKRIVSLQRQHLAVISFSVEPVNFTGNIKFVSAIDGDVRNITESEDVRVGSNLKGRVLETVERGTNGFEGWISQKTQKSNLSYTCAMKNELIGTEKYEVLNNVKEDRVEVAVAFKAEKNRVYILNKFISYYTSKDCDKSETMKLALEEVRRAQEDGFCKIEKEQEEFLQSFWEDADVVIEGDKALQQGIRFNMFHLLQSVGRDGKTNIAAKGLTGEGYEGHYFWDSDIYILPFFLYTKPEIAKALIMYRYNLLDAARNRAKELGHKGALYPWRTIDGPECSAYFPAGTAQYHINADIVYALKKYVEATNDLDFLYDYGCEIVFETARFWEDLGAYIPLKGNKFCINTVTGPDEYTALVDNNAYTNYMAKMNLEYAYDIANKMKKEVPEKYQKVASKLNLKDEEIASWKRAANNMYLPYSEELDIIPQDDSFLYKERITVDEIPEDQFPLLLHWHYLNIYRYQICKQPDVLLLMFLQREKFTIEQLKKNFDYYEPITTHDSSLSPAIFSILANEIGYTDKAYKYFMMTARMDLDDYNDNVKDGIHAAAMAGSWSAVVNGFGGMRVYTDELHFTPGLPEGWKMLSFNVKYKGRKINVKLTHEESVFTLLEGEPIEIFYFDRRVLIKSGENILKGYEEK
- activity retained after incubation [2]: 100%
- donor preference in phosphorolysis of lactotrehalose [3]: almost exclusively produces β-Glc1P
- Ratio βGal1P/βGlc1P [3]: 0.04
- Release of βGal1P [3]: 0.13 U/mg
- Release of βGlc1P [3]: 3.0 U/mg
- optimal pH for phosphorolytic activity [4]: 7
- optimal temperature for phosphorolytic activity [4]: 80 °C
- specific activity ([4]; phosphorolysis of trehalose): 39.8±3.5 U/mg
- kcat [5]: 54 s⁻¹
- Km [6]: 3.5 ± 0.7 mM
- kcat [6]: 59 ± 5.4 s⁻¹
- kcat/Km [6]: 17000 ± 4000 M⁻¹ s⁻¹
- Km [7]: 3.5 mM
- kcat [7]: 59 s⁻¹

B2: K450N: CsTP with mutation K450N (protein, listed as Caldanaerobacter subterraneus)
chain: B1 chain with K450N
- change in specific activity on mannose as acceptor [8]: significantly increases

B3: L649G: CsTP variant, leucine at position 649 of SEQ ID N° 1 substituted for glycine (protein, listed as Caldanaerobacter subterraneus)
chain: B1 chain with L649G
- donor preference in phosphorolysis of lactotrehalose [3]: preferentially produced βGal1P
- Ratio βGal1P/βGlc1P [3]: 2.6
- Release of βGal1P [3]: 0.22 U/mg
- Release of βGlc1P [3]: 0.09 U/mg
- fold increase in the ratio of beta-galactose-1-phosphate over beta-glucose-1-phosphate release from lactotrehalose ([3]; compared with wild type): 60 fold

B4: K450S: CsTP mutant, lysine at position 450 of SEQ ID N° 1 substituted for serine (protein, listed as Caldanaerobacter subterraneus)
chain: B1 chain with K450S
- Km [5]: 78.4 mM
- kcat [5]: 53 s⁻¹
- Km [7]: 2.3 mM
- kcat [7]: 62 s⁻¹

B5: N659Y: CsTP mutant at position 659 of SEQ ID N° 1 (protein, listed as Caldanaerobacter subterraneus)
chain: B1 chain with N659Y
- Km [5]: 46.3 mM
- kcat [5]: 51 s⁻¹
- Km [7]: 1.2 mM
- kcat [7]: 46 s⁻¹

B6: A442V: CsTP mutant, Ala442 of SEQ ID N° 1 into Val (protein, listed as Caldanaerobacter subterraneus)
chain: B1 chain with A442V
- Km [5]: 70.2 mM
- kcat [5]: 52 s⁻¹
- Km [7]: 2.3 mM
- kcat [7]: 67 s⁻¹
